The text below walks through data of patent US20100129294.

For data set [1], the target named is Aβ40 fibrils formed from a synthetic Aβ40 peptide.
Data set [2] has as its target T1, insulin fibrils formed from purified bovine insulin, P01317.
T1 chain: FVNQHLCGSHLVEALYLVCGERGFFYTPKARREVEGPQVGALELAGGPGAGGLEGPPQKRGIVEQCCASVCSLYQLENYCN

Data set [3] has as its target transthyretin (TTR) fibrils, P02766.
The target in data set [4] is β2-microglobulin (β2-M) fibrils, P61769.
Chain of β2-microglobulin (β2-M) fibrils, P61769 (P61769 21-119): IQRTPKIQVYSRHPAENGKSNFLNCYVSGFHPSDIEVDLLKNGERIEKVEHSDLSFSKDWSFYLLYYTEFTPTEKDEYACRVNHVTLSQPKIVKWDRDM

B1: nattokinase (protein)
chain: AQSVPYGISQIKAPALHSQGYTGSNVKVAVIDSGIDSSHPDLNVRGGASFVPSETNPYQDGSSHGTHVAGTIAALNNSIGVLGVAPSASLYAVKVLDSTGSGQYSWIINGIEWAISNNMDVINMSLGGPTGSTALKTVVDKAVSSGIVVAAAAGNEGSSGSTSTVGYPAKYPSTIAVGAVNSSNQRASFSSVGSELDVMAPGVSIQSTLPGGTYGAYNGTSMATPHVAGAAALILSKHPTWTNAQVRDRLESTATYLGNSFYYGKGLINVQAAAQ
Take B1: in data set [1], the “loss of negative ellipticity at 218 nm in CD spectra after 1 hr of digestion (40 C, pH 7)” value was “nattokinase degraded all three fibrils”. Further, in data set [2], the “degradation of insulin fibrils at pH 5, 40 C, by CD spectroscopy” value was “At pH 5, nattokinase did not show any activity”; the “degradation of insulin fibrils at pH 5-10, 40 C, by CD spectroscopy” value was “the nattokinase activity increased gradually with increasing pH and reached a maximal activity at pH 10 in the range tested”; the “loss of negative ellipticity at 218 nm in CD spectra after 1 hr of digestion (40 C, pH 7)” value was “nattokinase degraded all three fibrils”. In addition, in data set [3], the “degradation of TTR fibrils at pH 7.4 and 37 C, by ThT fluorescence emission at 487 nm” value is listed as “TTR fibrils were almost completely degraded by nattokinase in one hour”. Moreover, the “degradation of β2-M fibrils at pH 7.4 and 37 C, by ThT fluorescence emission at 487 nm” value in data set [4] is reported as “As for β2-M fibrils, it was degraded near completion in two hours”.
